*1 amine or outer side, *2 acyl side, *3 side chain or, on linkers, in order; H or OH if unused. Where a SMILES comes first, the peptide text is derived from it. Bridges are numbered along the chain shown (N, C = ends). [ ]: non-standard residue; d: D form. The star is where a group is joined. X1 = N#C[C@@H]1CC(F)(F)CN1C(=O)CNC(=O)c1ccnc2ccc(OCCCN3CCN(*)CC3)cc12; DOTA = O=C(O)CN1CCN(CC(=O)O)CCN(CC(=O)*)CCN(CC(=O)O)CC1; 2Nal = N[C@@H](Cc1ccc2ccccc2c1)C(=O)O; Cit = NC(=O)NCCC[C@H](N)C(=O)O; Suc = O=C(CCC(=O)[*:2])[*:1]; AEEA = NCCOCCOCC(=O)O
Experiments:
[1] = Competitive experiment of radioligand against endogenous free amino acids (histidine, cysteine); format: physicochemical; conditions: 37° C., 2 hours
Procedure: (§1) To an EP tube containing 150 μL of PBS buffer, 150 μL of H2O, and 50 μL of ^68Ga-SDYD01 was added 50 μL of cysteine hydrochloride solution (10 mM) or histidine solution (10 mM). The mixture was vortexed and incubated at 37° C. for 2 hours, after which samples were taken for radio-HPLC analysis.
This study utilized different concentrations of histidine and cysteine solutions to investigate whether histidine (or cysteine) competes with ^68Ga-SDYD01 for metal chelation.
To an EP tube containing 150 μL of PBS buffer, 150 μL of H2O, and 50 μL of ^68Ga-SDYD02 was added 50 μL of cysteine hydrochloride solution (10 mM) or histidine solution (10 mM). The mixture was vortexed and incubated at 37° C. for 2 hours, after which samples were taken for radio-HPLC analysis.
This study utilized different concentrations of histidine and cysteine solutions to investigate whether histidine (or cysteine) competes with ^68Ga-SDYD02 for metal chelation.
as §1, with “^68Ga-SDYD05” for “^68Ga-SDYD01”, “analysis. This study utilized different concentrations of histidine and cysteine solutions to investigate whether histidine (or cysteine) competes with ^68Ga-SDYD05 for metal chelation.” for “analysis.”
as §1, with “^68Ga-SDYD06” for “^68Ga-SDYD01”, “analysis. This study utilized different concentrations of histidine and cysteine solutions to investigate whether histidine (or cysteine) competes with ^68Ga-SDYD06 for metal chelation.” for “analysis.”

[2] = tested on: SUM149PT human breast cancer cell line; test: Cell uptake and inhibition assay, SUM149PT; format: cell-based
Procedure: The cell lines involved in the cell experiments in the test examples include: SUM149PT human breast cancer cell line, HUTU-80 human duodenal adenocarcinoma cell line, and U-118 MG human brain astrocytoma/glioblastoma cell line.
SUM149PT: Complete medium was formulated using DMEM high-glucose medium, 10% FBS, and a penicillin-streptomycin solution. The cells were cultured in a constant temperature incubator at 37° C. with 5% CO2. The culture medium was regularly replaced, and the cells were passaged. The culture medium was generally changed every 2 to 3 days. The growth of the tumor cells was observed daily under a microscope, including monitoring cell growth status, checking for adherence, examining cell morphology for any abnormalities, checking for contamination, and observing medium color for any abnormalities. Cells were passaged when they reached 80-90% confluence.
When cell confluence in the culture flask reached 80%, the cells were digested and centrifuged, and the supernatant was removed. An appropriate amount of medium was added to dilute so that each well contained 500 μL of medium for plating. After thorough mixing by pipetting, the cell suspension was seeded into a 24-well plate at a density of 5×10^5 cells per well. The plate was then placed into the incubator for continued growth. The cells were ready for cellular experiments when they reached 80% confluence.
(1) The cell uptake assay established four incubation time points: 15, 30, 60, and 120 minutes, respectively. For each time point, four groups were set up: non-inhibition group, a first single inhibition group (FAP single inhibition), a second single inhibition group (CXCR4/GRPR/αvβ3 single inhibition), and a dual inhibition group (FAP inhibitor+CXCR4/GRPR/αvβ3 inhibitor). Each group at each time point was set up with 3 triplicate wells.
(2) Cells were plated into a 24-well plate according to the cell plating procedure described above.
(3) The original culture medium was removed from the 24-well plate. Then, 400 μL of 100 mg/mL skimmed milk solution was added to each well for blocking for one hour. After removing the skimmed milk solution, each of the wells was washed three times by adding 400 μL of PBS solution. Subsequently, 146 μL of FBS-free medium was added to each well. Next, the non-inhibition group received 4 μL of cold PBS per well, while the first single inhibition group, the second single inhibition group, and the dual inhibition group received the following additions per well according to Table 3: 2 μL of non-radiolabeled first single inhibitor solution and 2 μL of cold PBS: 2 μL of non-radiolabeled second single inhibitor solution and 2 μL of cold PBS; 2 μL of non-radiolabeled first single inhibitor solution (10 mM) and 2 μL of non-radiolabeled second single inhibitor solution (10 mM). The plate was incubated at room temperature for one hour.
(4) The ^68Ga- and ^177Lu-labeled radioactive ligands were formulated by adding FBS-free medium to achieve a radioligand system concentration of 20 nM. Then, 50 μL of this radioligand system was added to each well. Each group was incubated according to the designated time points: 15, 30, 60, and 120 minutes.
(5) After the incubation was complete, the supernatant was removed, and the wells were washed three times with 400 μL of PBS solution. Then, 200 μL of 1 M NaOH solution was added to each well for cell lysis. […] Each well was then washed once with 400 μL of PBS solution, and this wash solution was also added to the corresponding radioimmunoassay tubes.
(6) The radioactivity in the cells was measured using a γ counter. A bar graph was plotted using GraphPad Prism software. The inhibition rate for each inhibition group was calculated as follows: Inhibition Rate (%)=(1−[Radioactive Count of the Inhibition Group]/[Radioactive Count of the Non-inhibition Group])×100%. […]

Q: For `N#C[C@@H]1CC(F)(F)CN1C(=O)CNC(=O)c1ccnc2ccc(OCCCN3CCN(C(=O)CCC(=O)N[C@@H](CCCCNC(=O)CN4CCN(CC(=O)O)CCN(CC(=O)O)CCN(CC(=O)O)CC4)C(=O)NCCOCCOCC(=O)NCCOCCOCC(=O)N[C@@H](CCCNC(=N)N)C(=O)N[C@@H](CCCNC(=N)N)C(=O)N[C@@H](Cc4ccc5ccccc5c4)C(=O)N[C@H]4CSSC[C@@H](C(=O)N[C@@H](CCCNC(=N)N)C(N)=O)NC(=O)[C@H](CCCNC(N)=O)NC(=O)[C@H](CCCNC(=N)N)NC(=O)[C@H](Cc5ccc(O)cc5)NC(=O)[C@@H]5CCCN5C(=O)[C@H](CCCCN)NC(=O)[C@H](CCCCN)NC(=O)[C@H](CCCNC(N)=O)NC(=O)[C@H](Cc5ccc(O)cc5)NC4=O)CC3)cc12` [^68Ga-SDYD01, metal not drawn] ({X1-Suc}-K(DOTA)[AEEA][AEEA]RR[2Nal]CY[Cit]KKPYR[Cit]CR-NH2; disulfide 7-16), which “competitive chelation in the presence of histidine and cysteine (in words)” value [1] is on record?
A: Its value is “did not undergo competitive chelation”.

Q: And the “radiochemical purity after incubation with cysteine” value ([1]; cysteine hydrochloride solution (10 mM))?
A: The value was 93%.

Q: What about the “radiochemical purity after incubation with histidine” value ([1]; histidine solution (10 mM)) of the same compound?
A: Its value is 93%.

Q: And the “cell uptake, comparison of non-inhibition, FAP single, CXCR4 single and dual inhibition groups (in words)” value ([2]; FAPI-04 and T140 as inhibitors)?
A: The value was “dual inhibition group exhibited the lowest uptake”.

Q: What about the “cell uptake over incubation time (in words)” value ([2]; non-inhibition group, 15-120 minutes) of the same compound?
A: Its value is “slowly increased and reached a plateau from 30 to 120 minutes”.

Reference: patent US20260069728A1, “MULTI-TARGETING COMPOUND AND USE THEREOF” (Chengdu Shetai Medical Technology Co., Ltd., priority 2023, published 2026)
